Reference: doi:10.1101/2022.02.08.479534, “FoxP3 can fold into two distinct dimerization states with divergent functional implications for T cell homeostasis”
Numbering of substitutions follows the chain as printed.

What was measured:
Test in all cases: EMSA; EMSA: 0.2 uM DNA, 20 mM Tris pH 7.5, 150 mM NaCl, 1.5 mM MgCl2, 2 mM DTT, 30 min at 4 C; anti-HA bead DNA pull-down: 20 min at room temperature; the EMSA IR-FKHM4g length is taken as 31 bp
FoxP3ΔN = target: T1, FoxP3ΔN (Mus musculus, UniProt Q99JB6 188-423); conditions: protein: recombinant; tags: His6-NusA cleaved (HRV3C); chain copies: 2; blunt
T1 sequence: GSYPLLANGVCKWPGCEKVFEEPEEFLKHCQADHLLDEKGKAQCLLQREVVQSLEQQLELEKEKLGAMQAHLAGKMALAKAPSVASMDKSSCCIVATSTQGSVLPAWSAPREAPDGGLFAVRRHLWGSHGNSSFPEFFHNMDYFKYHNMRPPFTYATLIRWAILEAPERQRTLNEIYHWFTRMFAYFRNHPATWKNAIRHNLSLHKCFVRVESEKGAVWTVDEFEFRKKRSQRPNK

[1] = target: T2, NusA-FoxP3RBR-forkhead A372S (Mus musculus, UniProt Q99JB6 284-423, A372S); conditions: protein: recombinant; tags: His6-NusA; blunt
T2 sequence: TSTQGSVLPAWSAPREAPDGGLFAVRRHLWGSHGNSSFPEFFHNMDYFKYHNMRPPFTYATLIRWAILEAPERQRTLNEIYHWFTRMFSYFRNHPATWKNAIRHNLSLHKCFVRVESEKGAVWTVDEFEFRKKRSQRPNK

FoxP3RBR-forkhead = target: T3, FoxP3RBR-forkhead (Mus musculus, UniProt Q99JB6 284-423); conditions: protein: recombinant; tags: His6-NusA cleaved (HRV3C); blunt
T3 sequence: T2 sequence with S89A

Measured: binding result

B1: IR-FKHM4g (31bp) (dsDNA)
DNA 1: TTAGGAAAATTTGTTTACTCGAGTAAACAAA
DNA 2: TTTGTTTACTCGAGTAAACAAATTTTCCTAA
binds: FoxP3ΔN | [1] | FoxP3RBR-forkhead
